Assay results as given in paper PMC545490, “Mapping and mutation of the conserved DNA polymerase interaction motif (DPIM) located in the C-terminal domain of fission yeast DNA polymerase δ subunit Cdc27” (BMC Molecular Biology, 2004).

B1: Gal4-Cdc27-273-352 (wild type) [S. pombe] / LexA-Pol1-278-527 [S. pombe] (parent complex)
chain 1: TEAKSAAPDEPQEIIKSVSGGKRRGKRKVKKYATTKDEEGFLVTKEEEVWESFSEDENISTGTSNVVRNKPTTVNIATKK
chain 2: PLSPMTPLSSELDVSAFSEINSKIKNVDVPASSYSSPISKVSPSDVTEEDGSLFFFWMDYTEMYGSLCLFGKVYDKATKQYVSCFLKVDGIMRSLYFLPRPSSSSVSEDSIAAQTKDVYDEVANLLSKRGVKEWKSRVSKYKYAFELEDVPRTADYLEVIYSYSYPALPTDLTGSSFSHVFGTNTALFEQFVLSRRVMGPCWLKIQQPNFDAVKNASWCRVEIGCSSPQNISVSFEKNEITSKTPPMTVM

Variants of: B1
Experiment: yeast two-hybrid, β-galactosidase activity in liquid cultures; parent: 150; read off a plot

In order of falling response:
1. chain 1 K22A, chain 1 R23A, chain 1 R24A  ~46 Miller units
2. chain 1 K30A, chain 1 K31A  ~35 Miller units
